From patent US9587002B2, “Sequence of nucleotides and peptides GSE 24.2 of dyskerin, which can induce telomerase activity, method for obtaining same, therapeutic compositions and applications thereof” (CONSEJO SUPERIOR DE INVESTIGACIONES CIENTIFICAS, priority 2005, dated 2017)

Columns and labels:
c-MYC promoter = test: c-MYC-luc reporter (px3.2) luciferase assay in 293T cells; type: cell-based, human
Protocol: FIG. 12.—The promoter activity of c-MYC is induced by the GSE 24.2 peptide. A) Schematic representation of the c-MYC promoter, indicating the different constructs used in the experiments. B) 293T cells were co-transfected with the specified plasmids (10 μg/DNA per million cells) and with the px3.2 c-MYC-luc reporter (1 μg per million cells). C) The specified cell lines were transfected with the px3.2 c-MYC-luc reporter (1 μg per million cells). D) The specified cell lines were transfected with the different constructs of the c-MYC-luc reporter (1 μg per million cells). After 24 hours of transfection, the luciferase activity was analysed as specified above. CMV-Renilla (0.1 μg/ml per million cells) was used as a control for the transfection efficiency. The data represent the mean of two experiments performed in quadruplicate.
FIG. 13.—The activity of the c-MYC promoter induced by the GSE 24.2 peptide is dependent on the NHE III element. A) Schematic representation of the mutations generated in the NHE III element, px3.2 (SEQ ID NO: 21), px3.2 G12A (SEQ ID NO: 22), px3.2 G17A (SEQ ID NO: 23), and px3.2 G26T/G27T (SEQ ID NO: 24). B) The 293T cells were co-transfected with different constructs (10 μg/DNA per million cells) and with the different mutants of the px3.2 reporter plasmid (1 μg per million cells). C) The cell lines specified in the figure were transfected with the different mutants of the px3.2 reporter (1 μg per million cells). After 24 h of transfection, the luciferase activity was analysed as specified above. CMV-Renilla (0.1 μg/ml per million cells) was used as a control for the transfection efficiency. The data represent the mean of two experiments performed in quadruplicate.
The transcription of the c-myc gene is controlled by two different promoters and it seems to be repressed by a domain hypersensitive to DNase located between the P0 and P1 promoters (NHEIII). Thus, four different constructs were used that contained 3.2 kb of the transcription initiation point of c-myc bound to the luciferase gene (FIG. 12a).
This transcription factor, c-myc, should therefore activate the transcription of hTERT. Thus, three mutants deleted in the c-myc promoter were used to define the necessary region for the GSE 24.2 peptide to perform its inducing activity.
Since the NHEIII region has been described as an inhibitor of the transcription of c-myc, several mutants of the NHEIII region were constructed by Guanine modification of the purine-rich region. The 27 Guanines present in the NHEIII region are involved in maintaining the secondary structure of the G-quadruplexes of the purine-rich region (Pu27). The following were mutated: G12A, located on the second guanine of the second quartet; G17A, on the second triplet of Guanines; and, finally, two consecutive Guanines (G26A/G27A) at the end of the purine-rich region (FIG. 13a). These promoter construct were transfected in cells that express, either the empty vector, or the vectors containing the DKC protein or the GSE 24.2 peptide.
Directed mutagenesis. The specific mutations of guanine in the NHEIII region of the c-myc gene promoter, px3.2, were performed using the Quickchange X-L directed mutagenesis kit (Strategene) in accordance with the manufacturer's instructions.

hTERT = test: RT-PCR of hTERT in cells of patients with dyskeratosis congenita; type: cell-based, human; settings: RT-PCR 24 hours after transfection
Protocol: FIG. 10.—Telomerase activity and expression levels of hTERT and hTR in the cells of patients with dyskeratosis congenita and in VA13 cells transiently transfected with the 24.2 plasmid or the pLNCX empty vector. A) Telomerase activity measured by means of the TRAP assay in the cells of patients with dyskeratosis congenita (DC-1, DC-2 and DC-3) and in the carrier parent (DC-C) following electroporation of 45 μg of the pLNCX empty plasmid (−) or the pLNCX 24.2 vector (+) by 15 million cells. B) RT-PCR of the RNA from cells of one of the patients with dyskeratosis congenita, DC3 transfected with the empty vector and DC3 transfected with the 24.2 plasmid, using oligos specific for hTERT and hTR. As a starting RNA control, oligos for the amplification of GAPDH were used. C) Telomerase activity in VA13 cells. The cells were transiently transfected with 16 μg of the control pLNCX empty vector, expressing DKC or the GSE 24.2 peptide per million cells. 24 hours later, the telomerase activity was analysed as described above, using dilutions of the protein extracts from each transfection. D) The expression levels of hTERT and hTR in VA13 cells transfected with 16 μg of the different construct per million cells. RNA levels were detected as described above. GAPDH was used as a control. […] After 24 h of transfection, the luciferase activity was analyzed as described above. […]

B1: GSE 24.2: 165-pb cDNA fragment (nucleotides 268 to 433) of human dyskerin, SEQ ID NO1, encoding peptide SEQ ID NO2, expressed from pLNCX plasmid (nucleic acid, listed as Homo sapiens)
DNA: GGTTTCATTAATCTTGACAAGCCCTCTAACCCCTCTTCCCATGAGGTGGTAGCCTGGATTCGACGGATACTTCGGGTGGAGAAGACAGGGCACAGTGGTACTCTGGATCCCAAGGTGACTGGTTGTTTAATCGTGTGCATAGAACGAGCCACTCGCTTGGTGAAG
modifications: expressed from pLNCX plasmid; CDS (1)..(165) Sequence GSE 24.2
- c-myc promoter (px3.2myc) activity, transient co-transfection (c-MYC promoter; 293T cells, GSE 24.2 plasmid vs pLNCX jointly with px3.2myc reporter): A similar result was obtained
- transcription from deletion mutants of the c-myc promoter (c-MYC promoter; GSE 24.2 cells vs control cells, three deleted mutants): only those contained in the distal region of promoters P1 and P0, which include the NHEIII domain, were capable of maintaining the transcription
- activation of WT px3.2 myc promoter (c-MYC promoter; cells expressing empty vector, DKC or GSE 24.2): only the WT px3,2 myc promoter was capable of being activated
- activation of Pu27 (NHEIII) mutant c-myc promoters (c-MYC promoter; mutants G12A, G17A, G26A/G27A): at very low levels
- c-myc promoter (px3.2myc) activity, GSE 24.2 cells vs control cells (c-MYC promoter; stable cell lines transfected with px3.2myc): three-fold increase in activity
- hTERT expression levels in dyskeratosis congenita cells (hTERT): an increase in the expression levels was observed
